Source: article PMC10578477, “Biochemical and genetic dissection of the RNA-binding surface of the FinO domain of Escherichia coli ProQ”

Assays:
[1] = molecular target: T1, ProQ NTD WT (FinO domain) (Escherichia coli, UniProt P45577 1-130); assay: EMSA; details: EMSA: 25 mM Tris pH 7.5, 150 mM NaCl, 5% glycerol, 1 mM MgCl2, 1 nM 32P-RNA, 30 min RT; microplates pretreated with 0.0025% BSA; 6% gel in 0.5x TBE at 4 C
T1 sequence: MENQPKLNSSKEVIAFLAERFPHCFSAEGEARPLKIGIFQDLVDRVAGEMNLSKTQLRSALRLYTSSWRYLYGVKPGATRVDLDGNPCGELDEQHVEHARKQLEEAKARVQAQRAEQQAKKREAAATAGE

[2] = molecular target: T1, ProQ NTD WT (FinO domain); assay: EMSA; EMSA: 25 mM Tris pH 7.5, 150 mM NaCl, 5% glycerol, 1 mM MgCl2, 1 nM 32P-RNA, 30 min RT; microplates pretreated with 0.0025% BSA; 6% gel in 0.5x TBE at 4 C; details: protein: recombinant, tags: His6-TEV removed, N-terminal Ser remains, label: 5'-32P
[3] = molecular target: T1, ProQ NTD WT (FinO domain); assay: EMSA; range for five RNAs; EMSA: 25 mM Tris pH 7.5, 150 mM NaCl, 5% glycerol, 1 mM MgCl2, 1 nM 32P-RNA, 30 min RT; microplates pretreated with 0.0025% BSA; 6% gel in 0.5x TBE at 4 C; details: protein: recombinant; tags: His6-TEV removed, N-terminal Ser remains; label: 5'-32P; terminator hairpin, 8 U 3' tail

With gapA-3' as the molecule, how does the Kd [1] read?
The Kd was 14 nM.

RybB was tested. Which Kd [1] did it give?
Its Kd is 26 nM.

For GGAAUUCGGAAGGCGCUUAAUCAGCGCCUUUUUU (structured_RNA) [cspE-mini-3'-6U], which binding signal ([2]; hairpin, 6 U tail (2 predicted single-stranded)) is on record?
The binding signal was ~2.5 fold weaker Kd than cspE-mini.

B1: cspE-3' (structured_RNA)
RNA: GUAAGAUACGUCAGCAAGAAUUCAAAACCCGCUUAAUCAGCGGGUUUUUUUU
How did the Kd [3] turn out when B1 was run?
The Kd was ~6.33 nM.

How did the binding signal ([2]; hairpin with 5' and 3' single-stranded regions) turn out when GGAAUUCGGAAGGCGCUUAAUCAGCGCCUUUUUUUU (structured_RNA) [cspE-mini] was run?
Its binding signal is ~1 fold weaker Kd than cspE-3'.
